Measurements published in patent US20260001928A1 (CORTERIA PHARMACEUTICALS, priority 2022, published 2026).
*1 amine or outer side, *2 acyl side, *3 side chain or, on linkers, in order; H or OH if unused. Primed or numbered codes have the meaning given here. Side-chain parts run from the residue outwards. [ ]: non-standard residue; d: D form. The star is where a group is joined. Thp′ = 4-amino-tetrahydro-2H-pyran-4-yl-acetic acid, O=C(CC1(N[*:1])CCOCC1)[*:2]; C20 diacid = O=C(O)CCCCCCCCCCCCCCCCCCC(=O)*; C18 diacid = O=C(O)CCCCCCCCCCCCCCCCC(=O)*; γGlu = O=C(O)[C@H](CCC(=O)[*:2])N[*:1]; Api = NC1(C(=O)O)CCNCC1; AEEA = NCCOCCOCC(=O)O; Aib = CC(C)(N)C(=O)O

What was measured:
[1] = biological target: human corticotropin-releasing factor 2a (CRF2a receptor) (human), Q13324; assay: cell-based or functional assay
human corticotropin-releasing factor 2a (CRF2a receptor) (human), Q13324, sequence (Q13324 20-411): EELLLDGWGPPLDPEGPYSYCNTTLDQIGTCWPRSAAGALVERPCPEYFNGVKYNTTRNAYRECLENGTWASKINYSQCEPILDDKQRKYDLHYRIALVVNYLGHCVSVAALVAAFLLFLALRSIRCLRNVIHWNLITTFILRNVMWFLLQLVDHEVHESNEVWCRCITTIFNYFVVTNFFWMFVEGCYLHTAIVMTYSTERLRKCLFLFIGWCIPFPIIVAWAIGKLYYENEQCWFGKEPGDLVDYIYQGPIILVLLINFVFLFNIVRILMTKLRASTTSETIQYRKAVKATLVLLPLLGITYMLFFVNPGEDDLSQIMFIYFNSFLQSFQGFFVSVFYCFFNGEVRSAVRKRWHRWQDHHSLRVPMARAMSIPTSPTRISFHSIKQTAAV

CRF1R receptor = biological target: T1, CRF1R receptor (UniProt P34998 24-415, limits assumed); assay: cell-based or functional assay
T1 sequence (looked up): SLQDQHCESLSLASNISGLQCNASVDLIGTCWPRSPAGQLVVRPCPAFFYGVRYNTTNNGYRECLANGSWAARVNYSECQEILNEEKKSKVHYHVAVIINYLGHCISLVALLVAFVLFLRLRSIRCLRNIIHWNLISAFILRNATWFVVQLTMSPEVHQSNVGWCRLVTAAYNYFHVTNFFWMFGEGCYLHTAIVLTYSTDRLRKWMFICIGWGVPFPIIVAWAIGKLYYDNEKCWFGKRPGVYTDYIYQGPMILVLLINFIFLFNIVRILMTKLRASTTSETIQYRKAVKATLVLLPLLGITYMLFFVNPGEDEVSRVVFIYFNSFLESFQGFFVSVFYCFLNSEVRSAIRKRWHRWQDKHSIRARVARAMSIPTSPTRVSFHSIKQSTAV

B1: SEQ ID NO 208 (peptide)
peptide: Ac-IVLSLD[dV]PIKLK([γGlu-C20 diacid])KILLEQEKQK[Aib]QREQAETN[Api]QILAQV-NH2
SMILES: CC[C@H](C)[C@H](NC(C)=O)C(=O)N[C@H](C(=O)N[C@@H](CC(C)C)C(=O)N[C@@H](CO)C(=O)N[C@@H](CC(C)C)C(=O)N[C@@H](CC(=O)O)C(=O)N[C@@H](C(=O)N1CCC[C@H]1C(=O)N[C@H](C(=O)N[C@@H](CCCCN)C(=O)N[C@@H](CC(C)C)C(=O)N[C@@H](CCCCNC(=O)CC[C@H](NC(=O)CCCCCCCCCCCCCCCCCCC(=O)O)C(=O)O)C(=O)N[C@@H](CCCCN)C(=O)N[C@H](C(=O)N[C@@H](CC(C)C)C(=O)N[C@@H](CC(C)C)C(=O)N[C@@H](CCC(=O)O)C(=O)N[C@@H](CCC(N)=O)C(=O)N[C@@H](CCC(=O)O)C(=O)N[C@@H](CCCCN)C(=O)N[C@@H](CCC(N)=O)C(=O)N[C@@H](CCCCN)C(=O)NC(C)(C)C(=O)N[C@@H](CCC(N)=O)C(=O)N[C@@H](CCCNC(=N)N)C(=O)N[C@@H](CCC(=O)O)C(=O)N[C@@H](CCC(N)=O)C(=O)N[C@@H](C)C(=O)N[C@@H](CCC(=O)O)C(=O)N[C@H](C(=O)N[C@@H](CC(N)=O)C(=O)NC1(C(=O)N[C@@H](CCC(N)=O)C(=O)N[C@H](C(=O)N[C@@H](CC(C)C)C(=O)N[C@@H](C)C(=O)N[C@@H](CCC(N)=O)C(=O)N[C@H](C(N)=O)C(C)C)[C@@H](C)CC)CCNCC1)[C@@H](C)O)[C@@H](C)CC)[C@@H](C)CC)C(C)C)C(C)C
EC50 [nM] (cAMP) [1]: 0.15 nM
EC50 (CRF1R receptor): 83900 pM
Emax (% I) (CRF1R receptor): 63%

B2: SEQ ID NO 207 (peptide)
peptide: Ac-IVLSLD[dV]PIKLK([γGlu-C20 diacid])KILLEQEKQKKQREQAETN[Api]QILAQV-NH2
SMILES: CC[C@H](C)[C@H](NC(C)=O)C(=O)N[C@H](C(=O)N[C@@H](CC(C)C)C(=O)N[C@@H](CO)C(=O)N[C@@H](CC(C)C)C(=O)N[C@@H](CC(=O)O)C(=O)N[C@@H](C(=O)N1CCC[C@H]1C(=O)N[C@H](C(=O)N[C@@H](CCCCN)C(=O)N[C@@H](CC(C)C)C(=O)N[C@@H](CCCCNC(=O)CC[C@H](NC(=O)CCCCCCCCCCCCCCCCCCC(=O)O)C(=O)O)C(=O)N[C@@H](CCCCN)C(=O)N[C@H](C(=O)N[C@@H](CC(C)C)C(=O)N[C@@H](CC(C)C)C(=O)N[C@@H](CCC(=O)O)C(=O)N[C@@H](CCC(N)=O)C(=O)N[C@@H](CCC(=O)O)C(=O)N[C@@H](CCCCN)C(=O)N[C@@H](CCC(N)=O)C(=O)N[C@@H](CCCCN)C(=O)N[C@@H](CCCCN)C(=O)N[C@@H](CCC(N)=O)C(=O)N[C@@H](CCCNC(=N)N)C(=O)N[C@@H](CCC(=O)O)C(=O)N[C@@H](CCC(N)=O)C(=O)N[C@@H](C)C(=O)N[C@@H](CCC(=O)O)C(=O)N[C@H](C(=O)N[C@@H](CC(N)=O)C(=O)NC1(C(=O)N[C@@H](CCC(N)=O)C(=O)N[C@H](C(=O)N[C@@H](CC(C)C)C(=O)N[C@@H](C)C(=O)N[C@@H](CCC(N)=O)C(=O)N[C@H](C(N)=O)C(C)C)[C@@H](C)CC)CCNCC1)[C@@H](C)O)[C@@H](C)CC)[C@@H](C)CC)C(C)C)C(C)C
EC50 [nM] (cAMP) [1]: 0.12 nM
EC50 (CRF1R receptor): 61400 pM
Emax (% I) (CRF1R receptor): 65%

B3: SEQ ID NO 206 (peptide)
peptide: Ac-IVLSLD[dV]PIKLK([γGlu-C20 diacid])KILLEQEKQKKQREQAETN[Aib]QILAQV-NH2
SMILES: CC[C@H](C)[C@H](NC(C)=O)C(=O)N[C@H](C(=O)N[C@@H](CC(C)C)C(=O)N[C@@H](CO)C(=O)N[C@@H](CC(C)C)C(=O)N[C@@H](CC(=O)O)C(=O)N[C@@H](C(=O)N1CCC[C@H]1C(=O)N[C@H](C(=O)N[C@@H](CCCCN)C(=O)N[C@@H](CC(C)C)C(=O)N[C@@H](CCCCNC(=O)CC[C@H](NC(=O)CCCCCCCCCCCCCCCCCCC(=O)O)C(=O)O)C(=O)N[C@@H](CCCCN)C(=O)N[C@H](C(=O)N[C@@H](CC(C)C)C(=O)N[C@@H](CC(C)C)C(=O)N[C@@H](CCC(=O)O)C(=O)N[C@@H](CCC(N)=O)C(=O)N[C@@H](CCC(=O)O)C(=O)N[C@@H](CCCCN)C(=O)N[C@@H](CCC(N)=O)C(=O)N[C@@H](CCCCN)C(=O)N[C@@H](CCCCN)C(=O)N[C@@H](CCC(N)=O)C(=O)N[C@@H](CCCNC(=N)N)C(=O)N[C@@H](CCC(=O)O)C(=O)N[C@@H](CCC(N)=O)C(=O)N[C@@H](C)C(=O)N[C@@H](CCC(=O)O)C(=O)N[C@H](C(=O)N[C@@H](CC(N)=O)C(=O)NC(C)(C)C(=O)N[C@@H](CCC(N)=O)C(=O)N[C@H](C(=O)N[C@@H](CC(C)C)C(=O)N[C@@H](C)C(=O)N[C@@H](CCC(N)=O)C(=O)N[C@H](C(N)=O)C(C)C)[C@@H](C)CC)[C@@H](C)O)[C@@H](C)CC)[C@@H](C)CC)C(C)C)C(C)C
EC50 [nM] (cAMP) [1]: 0.11 nM
EC50 (CRF1R receptor): 224000 pM
Emax (% I) (CRF1R receptor): 42%

B4: SEQ ID NO 211 (peptide)
peptide: Ac-IVLSLD[dV]PIKLK([γGlu-C20 diacid])KILLEQEAQKKQREQAETN[Aib]QILAQV-NH2
SMILES: CC[C@H](C)[C@H](NC(C)=O)C(=O)N[C@H](C(=O)N[C@@H](CC(C)C)C(=O)N[C@@H](CO)C(=O)N[C@@H](CC(C)C)C(=O)N[C@@H](CC(=O)O)C(=O)N[C@@H](C(=O)N1CCC[C@H]1C(=O)N[C@H](C(=O)N[C@@H](CCCCN)C(=O)N[C@@H](CC(C)C)C(=O)N[C@@H](CCCCNC(=O)CC[C@H](NC(=O)CCCCCCCCCCCCCCCCCCC(=O)O)C(=O)O)C(=O)N[C@@H](CCCCN)C(=O)N[C@H](C(=O)N[C@@H](CC(C)C)C(=O)N[C@@H](CC(C)C)C(=O)N[C@@H](CCC(=O)O)C(=O)N[C@@H](CCC(N)=O)C(=O)N[C@@H](CCC(=O)O)C(=O)N[C@@H](C)C(=O)N[C@@H](CCC(N)=O)C(=O)N[C@@H](CCCCN)C(=O)N[C@@H](CCCCN)C(=O)N[C@@H](CCC(N)=O)C(=O)N[C@@H](CCCNC(=N)N)C(=O)N[C@@H](CCC(=O)O)C(=O)N[C@@H](CCC(N)=O)C(=O)N[C@@H](C)C(=O)N[C@@H](CCC(=O)O)C(=O)N[C@H](C(=O)N[C@@H](CC(N)=O)C(=O)NC(C)(C)C(=O)N[C@@H](CCC(N)=O)C(=O)N[C@H](C(=O)N[C@@H](CC(C)C)C(=O)N[C@@H](C)C(=O)N[C@@H](CCC(N)=O)C(=O)N[C@H](C(N)=O)C(C)C)[C@@H](C)CC)[C@@H](C)O)[C@@H](C)CC)[C@@H](C)CC)C(C)C)C(C)C
EC50 [nM] (cAMP) [1]: 0.15 nM
EC50 (CRF1R receptor): 39900 pM
Emax (% I) (CRF1R receptor): 73%

B5: SEQ ID NO 209 (peptide)
peptide: Ac-IVLSLD[dV]PIKLK([γGlu-C20 diacid])KILLEQEKQK[Aib]QREQAETN[Aib]QILAQV-NH2
SMILES: CC[C@H](C)[C@H](NC(C)=O)C(=O)N[C@H](C(=O)N[C@@H](CC(C)C)C(=O)N[C@@H](CO)C(=O)N[C@@H](CC(C)C)C(=O)N[C@@H](CC(=O)O)C(=O)N[C@@H](C(=O)N1CCC[C@H]1C(=O)N[C@H](C(=O)N[C@@H](CCCCN)C(=O)N[C@@H](CC(C)C)C(=O)N[C@@H](CCCCNC(=O)CC[C@H](NC(=O)CCCCCCCCCCCCCCCCCCC(=O)O)C(=O)O)C(=O)N[C@@H](CCCCN)C(=O)N[C@H](C(=O)N[C@@H](CC(C)C)C(=O)N[C@@H](CC(C)C)C(=O)N[C@@H](CCC(=O)O)C(=O)N[C@@H](CCC(N)=O)C(=O)N[C@@H](CCC(=O)O)C(=O)N[C@@H](CCCCN)C(=O)N[C@@H](CCC(N)=O)C(=O)N[C@@H](CCCCN)C(=O)NC(C)(C)C(=O)N[C@@H](CCC(N)=O)C(=O)N[C@@H](CCCNC(=N)N)C(=O)N[C@@H](CCC(=O)O)C(=O)N[C@@H](CCC(N)=O)C(=O)N[C@@H](C)C(=O)N[C@@H](CCC(=O)O)C(=O)N[C@H](C(=O)N[C@@H](CC(N)=O)C(=O)NC(C)(C)C(=O)N[C@@H](CCC(N)=O)C(=O)N[C@H](C(=O)N[C@@H](CC(C)C)C(=O)N[C@@H](C)C(=O)N[C@@H](CCC(N)=O)C(=O)N[C@H](C(N)=O)C(C)C)[C@@H](C)CC)[C@@H](C)O)[C@@H](C)CC)[C@@H](C)CC)C(C)C)C(C)C
EC50 [nM] (cAMP) [1]: 0.22 nM
Emax (% I) (CRF1R receptor): 21%

B6: SEQ ID NO 205 (peptide)
peptide: Ac-IVLSLD[dV]PIKLK([AEEA-γGlu-γGlu-C18 diacid])KILLEQEKQKKQREQAETN[Aib]QILAQV-NH2
SMILES: CC[C@H](C)[C@H](NC(C)=O)C(=O)N[C@H](C(=O)N[C@@H](CC(C)C)C(=O)N[C@@H](CO)C(=O)N[C@@H](CC(C)C)C(=O)N[C@@H](CC(=O)O)C(=O)N[C@@H](C(=O)N1CCC[C@H]1C(=O)N[C@H](C(=O)N[C@@H](CCCCN)C(=O)N[C@@H](CC(C)C)C(=O)N[C@@H](CCCCNC(=O)COCCOCCNC(=O)CC[C@H](NC(=O)CC[C@H](NC(=O)CCCCCCCCCCCCCCCCC(=O)O)C(=O)O)C(=O)O)C(=O)N[C@@H](CCCCN)C(=O)N[C@H](C(=O)N[C@@H](CC(C)C)C(=O)N[C@@H](CC(C)C)C(=O)N[C@@H](CCC(=O)O)C(=O)N[C@@H](CCC(N)=O)C(=O)N[C@@H](CCC(=O)O)C(=O)N[C@@H](CCCCN)C(=O)N[C@@H](CCC(N)=O)C(=O)N[C@@H](CCCCN)C(=O)N[C@@H](CCCCN)C(=O)N[C@@H](CCC(N)=O)C(=O)N[C@@H](CCCNC(=N)N)C(=O)N[C@@H](CCC(=O)O)C(=O)N[C@@H](CCC(N)=O)C(=O)N[C@@H](C)C(=O)N[C@@H](CCC(=O)O)C(=O)N[C@H](C(=O)N[C@@H](CC(N)=O)C(=O)NC(C)(C)C(=O)N[C@@H](CCC(N)=O)C(=O)N[C@H](C(=O)N[C@@H](CC(C)C)C(=O)N[C@@H](C)C(=O)N[C@@H](CCC(N)=O)C(=O)N[C@H](C(N)=O)C(C)C)[C@@H](C)CC)[C@@H](C)O)[C@@H](C)CC)[C@@H](C)CC)C(C)C)C(C)C
EC50 [nM] (cAMP) [1]: 1.43 nM
Emax (% I) (CRF1R receptor): 1%

Ac-IVLSLD[dV]PIKLK([γGlu-C20 diacid])KILLEQEKQKKQREQAETN[Thp′]QILAQV-NH2 [SEQ ID NO 210]
EC50 [nM] (cAMP) [1]: 0.21 nM
EC50 (CRF1R receptor): > 250000 pM
Emax (% I) (CRF1R receptor): 35%
